Experiment [1] deals with HisKIX (His-tagged CBP KIX domain) (UniProt P45481). Nature of the experiment: fluorescence polarization at 150 µM HisKIX.
A further experiment has as its target CBP KIX variant E655A (UniProt P45481). Nature of the experiment: fluorescence polarization.
The next experiment has as its target CBP KIX variant I657A (UniProt P45481). Description: fluorescence polarization. For orientation: Fluorescence polarisation rises when a labelled molecule tumbles more slowly, as on binding a larger partner.
The target of another experiment is CBP KIX variant I660A (UniProt P45481). Nature of the experiment: fluorescence polarization.
A further experiment concerns the target CBP KIX variant K606A (UniProt P45481). Description: fluorescence polarization.
The next experiment deals with CBP KIX variant K662A (UniProt P45481). Nature of the experiment: fluorescence polarization.
The next experiment deals with CBP KIX variant L599A (UniProt P45481). Nature of the experiment: fluorescence polarization.
A further experiment has as its target CBP KIX variant L603A (UniProt P45481). Nature of the experiment: fluorescence polarization.
The target in experiment [2] is CBP KIX variant LL652-3AA (UniProt P45481). Nature of the experiment: fluorescence polarization.
The target in a further experiment is CBP KIX variant Q661A (UniProt P45481). Nature of the experiment: fluorescence polarization.
Experiment [3] concerns the target CBP KIX variant Y650A (Example 20) (UniProt P45481). Nature of the experiment: fluorescence polarization.
In another experiment the target is CBP KIX variant Y658A (UniProt P45481). Description: fluorescence polarization.
In a further experiment the target is CBP KIX variant Y658F (UniProt P45481). Description: fluorescence polarization.
In experiment [4] the target is GST-KIXY650A (Y650A variant of CBP KIX) (UniProt P45481). Nature of the experiment: fluorescence polarization.
Experiment [5] concerns the target catalytic subunit of cAMP-dependent protein kinase (PKA). Description: cell-based or functional assay.
In experiment [6] the target is HisKIX (His-tagged CBP KIX domain) (UniProt P45481). Nature of the experiment: fluorescence polarization at 325 µM HisKIX.
Experiment [7] addresses endogenous CBP/p300 in HEK293 cells. Nature of the experiment: cell-based or functional assay.
Experiment [8] has as its target full-length p300 (exogenous, CMV expression vector). Description: cell-based or functional assay.

Where only a bound is given, the exact number is not on record here.

CBP KIX variant L599A, sequence (P45481 586-665 L599A limits assumed): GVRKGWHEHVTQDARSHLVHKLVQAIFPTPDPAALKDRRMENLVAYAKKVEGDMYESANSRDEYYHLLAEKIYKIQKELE
CBP KIX variant Q661A, sequence (P45481 586-665 Q661A limits assumed): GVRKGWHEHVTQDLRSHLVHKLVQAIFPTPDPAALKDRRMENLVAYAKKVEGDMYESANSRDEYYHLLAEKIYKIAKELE
HisKIX (His-tagged CBP KIX domain), sequence (P45481 586-672): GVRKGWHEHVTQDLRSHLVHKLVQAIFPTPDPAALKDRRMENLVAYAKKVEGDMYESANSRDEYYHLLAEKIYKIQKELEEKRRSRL
CBP KIX variant LL652-3AA, sequence (P45481 other isoform, or with tags, fused parts or gaps mutant limits assumed): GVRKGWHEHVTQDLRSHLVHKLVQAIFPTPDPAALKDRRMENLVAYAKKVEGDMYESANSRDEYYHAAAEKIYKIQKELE
CBP KIX variant I660A, sequence (P45481 586-665 I660A limits assumed): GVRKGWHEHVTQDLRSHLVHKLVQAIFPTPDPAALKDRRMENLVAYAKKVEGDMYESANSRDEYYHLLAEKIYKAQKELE
CBP KIX variant E655A, sequence (P45481 586-665 E655A limits assumed): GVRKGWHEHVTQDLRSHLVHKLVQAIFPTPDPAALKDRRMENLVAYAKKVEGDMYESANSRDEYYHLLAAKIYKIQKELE
CBP KIX variant Y658A, sequence (P45481 586-665 Y658A limits assumed): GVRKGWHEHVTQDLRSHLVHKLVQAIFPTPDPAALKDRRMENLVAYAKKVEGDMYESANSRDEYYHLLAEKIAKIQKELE
CBP KIX variant Y658F, sequence (P45481 586-665 Y658F limits assumed): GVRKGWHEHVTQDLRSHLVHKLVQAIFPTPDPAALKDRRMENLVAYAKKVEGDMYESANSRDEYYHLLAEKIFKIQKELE
CBP KIX variant I657A, sequence (P45481 586-665 I657A limits assumed): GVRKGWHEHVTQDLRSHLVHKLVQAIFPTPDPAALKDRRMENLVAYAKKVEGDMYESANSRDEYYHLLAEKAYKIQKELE
CBP KIX variant K662A, sequence (P45481 586-665 K662A limits assumed): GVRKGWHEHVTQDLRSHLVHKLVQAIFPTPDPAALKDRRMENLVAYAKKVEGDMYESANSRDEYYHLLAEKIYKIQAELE
CBP KIX variant Y650A (Example 20), sequence (P45481 586-665 Y650A limits assumed): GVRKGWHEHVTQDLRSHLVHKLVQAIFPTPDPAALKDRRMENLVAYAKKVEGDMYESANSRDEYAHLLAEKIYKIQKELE
CBP KIX variant L603A, sequence (P45481 586-665 L603A limits assumed): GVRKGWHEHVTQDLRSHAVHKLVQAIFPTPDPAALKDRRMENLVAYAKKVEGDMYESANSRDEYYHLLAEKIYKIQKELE
CBP KIX variant K606A, sequence (P45481 586-665 K606A limits assumed): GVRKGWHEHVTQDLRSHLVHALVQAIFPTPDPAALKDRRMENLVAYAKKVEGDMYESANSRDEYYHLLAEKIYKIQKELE
GST-KIXY650A (Y650A variant of CBP KIX), sequence (P45481 586-665 Y650A limits assumed): as the sequence (P45481 586-665 Y650A limits assumed) above

In [1], “KID-AB^U, fluorescein-labelled (peptide)” had a change in polarization of 61 mP.
With “KID-AB^P (full-length CREB KID domain, residues 119-148, phosphorylated), fluorescein-labelled (peptide)”, the Kd with CBP KIX variant E655A came out at 710 nM; with CBP KIX variant I657A, 1900 nM; in the experiment with CBP KIX variant I660A, 270 nM; with CBP KIX variant K606A it was 2300 nM; in the experiment with CBP KIX variant K662A it was 4800 nM; in the experiment with CBP KIX variant L599A, 1100 nM. Also, the Kd in the experiment with CBP KIX variant L603A came to 3400 nM; in [2], 2900 nM; in the experiment with CBP KIX variant Q661A, 930 nM; in experiment [3] it was 9400 nM; in the experiment with CBP KIX variant Y658A it was 142000 nM; with CBP KIX variant Y658F, 26000 nM. The ΔΔG against wild type CBP KIX with CBP KIX variant E655A is 0.32 kcal/mol; in the experiment with CBP KIX variant I657A, 0.9 kcal/mol; with CBP KIX variant I660A, -0.26 kcal/mol; with CBP KIX variant K606A it was 1 kcal/mol; with CBP KIX variant K662A, 1.5 kcal/mol; with CBP KIX variant L599A, 0.58 kcal/mol. Further, the ΔΔG against wild type CBP KIX in the experiment with CBP KIX variant L603A turned out to be 1.2 kcal/mol; in [2] it was 1.2 kcal/mol; in the experiment with CBP KIX variant Q661A, 0.48 kcal/mol; in experiment [3] it was 1.8 kcal/mol; with CBP KIX variant Y658A, 3.5 kcal/mol; in the experiment with CBP KIX variant Y658F it was 2.5 kcal/mol. The substance further registered a fold less stable than the wild type GST-KIX complex in [4] of 15 fold.
Turning to “PKI^A21C alkylated with bromoacetamide (peptide)”, the IC50, inhibition of PKA phosphotransferase activity in experiment [5] is over 1000 nM.
As for KID-B^U, fluorescein-labelled (peptide), in experiment [6], the change in polarization is 76 mP.
For “Gal4 DBD (residues 1-147) fusion of KID-AB (from UniProt P04386 1-147)”, the fold activation of Gal4 luciferase reporter in HEK293 cells, with forskolin in experiment [7] worked out at 7.5 fold. This substance also showed a fold activation of Gal4 luciferase reporter, with forskolin and exogenous p300 in experiment [8] of 20 fold.

One may read the Kd as the free concentration of one partner at which half of the binding sites on the other are occupied at equilibrium, for simple one-to-one binding.
